Assay [1] has as its target c-MET receptor on the cell surface (H1975 cells) (UniProt P08581). In words: cell-based or functional assay.
The target of another assay is T1, Ron (CD136) (UniProt Q04912 25-957, limits assumed).
T1 sequence (looked up): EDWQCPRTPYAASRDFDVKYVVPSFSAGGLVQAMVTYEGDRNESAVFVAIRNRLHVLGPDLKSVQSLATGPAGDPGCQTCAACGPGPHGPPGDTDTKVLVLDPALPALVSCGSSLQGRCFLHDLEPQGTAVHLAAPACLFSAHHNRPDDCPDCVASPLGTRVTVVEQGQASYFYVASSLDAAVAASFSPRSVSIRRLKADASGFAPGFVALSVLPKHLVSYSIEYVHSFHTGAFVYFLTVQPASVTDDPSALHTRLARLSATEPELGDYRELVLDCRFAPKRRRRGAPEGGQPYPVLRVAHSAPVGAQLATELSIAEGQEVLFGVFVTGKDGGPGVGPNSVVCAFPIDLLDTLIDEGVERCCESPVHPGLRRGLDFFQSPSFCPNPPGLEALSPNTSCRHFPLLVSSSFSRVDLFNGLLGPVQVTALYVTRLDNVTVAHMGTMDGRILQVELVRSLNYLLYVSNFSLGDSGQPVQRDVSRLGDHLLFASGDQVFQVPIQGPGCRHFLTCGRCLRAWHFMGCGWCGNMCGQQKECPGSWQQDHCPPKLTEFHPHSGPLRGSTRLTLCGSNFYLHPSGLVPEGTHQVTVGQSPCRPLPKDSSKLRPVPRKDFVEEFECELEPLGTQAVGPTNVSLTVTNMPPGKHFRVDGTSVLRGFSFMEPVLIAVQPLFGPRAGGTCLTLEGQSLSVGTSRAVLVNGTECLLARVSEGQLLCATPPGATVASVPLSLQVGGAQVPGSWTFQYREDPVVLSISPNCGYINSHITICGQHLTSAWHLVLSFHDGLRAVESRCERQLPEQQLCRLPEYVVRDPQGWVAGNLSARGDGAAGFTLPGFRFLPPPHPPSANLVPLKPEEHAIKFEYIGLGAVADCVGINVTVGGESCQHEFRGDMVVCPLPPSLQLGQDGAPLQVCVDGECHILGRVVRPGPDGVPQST
Kind of assay: ELISA, antigen coated at 1 µg/mL, antibody titrated from 10 µg/mL. Here is the method: (§1) Specificity for EGFR and cMET species paralogs and closely related family members was determined by ELISA. Briefly, antigen solutions were prepared in PBS at 1 μg/mL and 50 microliters was coated onto half area ELISA assay plates. Plates were washed and blocked with 1% BSA in PBS containing 0.005% Tween-20 (PBS-T) for one hour at room temperature. […] Wells were incubated with 50 microliters of the indicated primary antibodies diluted in PBS-T in a 1:3 dilution series, starting at 10 μg/mL and ending at 0.002 μg/mL, except for the HER4 binding mAb control, MAB1131, for which the series started at 1 μg/mL. The wells were washed 4 times in PBS-T, then 50 μl of goat anti-human Fab HRP-labeled secondary antibody, diluted 1:5000 in PBS-T, was added to each well and incubated for one hour at room temperature. […] 50 microliters of TMB stop solution was added to all wells and the absorbance was read at 450 nm on a SpectraMax M5 microplate reader. Data were analyzed in the SoftMax Pro 5 software and plotted using GraphPad Prism 7 graphing software.
(§2) To determine the species cross reactivity, ELISA assays were carried out as described above.
For orientation: An ELISA detects its analyte on a solid surface through an enzyme-linked reagent.

Another assay has as its target mouse cMET (recombinant) (mouse, UniProt P16056 25-929, limits assumed). The description is as above. Here is the method: as §1, §2
The target of the next assay is T2, Semaphorin 3a (UniProt Q14563 21-771, limits assumed).
T2 sequence (looked up): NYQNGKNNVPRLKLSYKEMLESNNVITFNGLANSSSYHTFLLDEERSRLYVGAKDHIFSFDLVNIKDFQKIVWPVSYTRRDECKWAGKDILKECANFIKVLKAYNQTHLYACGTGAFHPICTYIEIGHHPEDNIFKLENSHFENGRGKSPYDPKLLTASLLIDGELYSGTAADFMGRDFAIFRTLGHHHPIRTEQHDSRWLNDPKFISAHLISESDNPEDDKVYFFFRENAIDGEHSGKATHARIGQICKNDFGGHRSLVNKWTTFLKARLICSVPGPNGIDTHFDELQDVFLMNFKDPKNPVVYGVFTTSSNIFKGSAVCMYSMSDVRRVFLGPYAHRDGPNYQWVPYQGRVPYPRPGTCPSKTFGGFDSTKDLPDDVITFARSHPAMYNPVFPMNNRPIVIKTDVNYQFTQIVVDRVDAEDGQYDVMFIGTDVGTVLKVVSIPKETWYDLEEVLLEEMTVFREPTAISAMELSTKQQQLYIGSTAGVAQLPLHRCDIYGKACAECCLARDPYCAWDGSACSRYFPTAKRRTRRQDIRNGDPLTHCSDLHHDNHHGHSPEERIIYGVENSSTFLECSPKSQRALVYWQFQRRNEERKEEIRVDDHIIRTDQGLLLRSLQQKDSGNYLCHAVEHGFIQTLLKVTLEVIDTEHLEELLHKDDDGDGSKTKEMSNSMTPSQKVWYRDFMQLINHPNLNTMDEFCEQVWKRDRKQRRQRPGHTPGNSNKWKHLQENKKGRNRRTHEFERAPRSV
The description is as above. Here is the method:
as §1, §2

For another assay, the target named is T3, mouse EGFR (recombinant) (mouse, UniProt Q01279 25-647).
T3 construct: also called murine EGFR
Kind of assay: SPR (BIAcore T200), antibody captured on anti-human IgG, soluble monomeric antigen as analyte, 25 C, 1:1 fit. Here is the method: (§3) Mouse anti-human IgG was immobilized on a CM4 sensor chip with a final surface density of ˜2000 resonance units (RUs). A reference flow cell surface was also prepared on this sensor chip using identical immobilization protocol. Test and control article antibodies were prepared at 5-20 nM in instrument buffer (HBS-EP buffer; 0.01M HEPES, pH 7.4, 0.15M NaCl, 3 mM EDTA, and 0.005% P-20), along with 3-fold serial dilutions of purified EGFR (0.27-200 nM human, 0.4-900 nM cyno, and 4-1000 nM murine) or cMET proteins (0.27-66 nM human and 0.27-22 nM cyno) in instrument buffer. A sequential approach was utilized for kinetic measurements. Antibodies were first injected over the capture surface, at a flow rate of 10 μL/minute. Once the binding of the captured antibody stabilized, a single concentration of the analyte was injected over both capture and reference surfaces, at a flow rate of 75 μL/minute. The resulting binding response curves yielded the association phase data. Following the injection of analyte, the flow was then switched back to instrument buffer for 15 minutes to permit the collection of dissociation phase data, followed by a 1-minute pulse of 10 mM glycine, pH 1.5, to regenerate the antibody-captured surface on the chip. Binding responses against test and control article antibodies were recorded from duplicate injections of each concentration of analyte. In addition, several buffer injections were interspersed throughout the injection series. Select buffer injections were used along with the reference cell responses to correct the raw data sets for injection artifacts and/or nonspecific binding interactions, commonly referred to as “double referencing”. Corrected binding data were globally fit to a 1:1 binding model (Biacore T200 Evaluation software 2.0, GE Healthcare, Pittsburgh, PA).
(§4) Kinetic measurements to soluble monomeric forms of EGFR and cMET were performed using a BIACore instrument.
A general note: Surface plasmon resonance follows binding to a sensor surface in real time, without labels.

Assay [2] addresses T4, human EGFR (recombinant, soluble monomeric) (human, UniProt P00533 25-645).
T4 construct: also called EGFR antigen
The description is as above. Here is the method:
as §3, §4

The target of assay [3] is T5, human cMET (recombinant, soluble monomeric) (human, UniProt P08581 25-932).
T5 construct: also called cMET antigen; His-tagged cMET antigen
Described as above. Here is the method:
as §3, §4

In assay [4] the target is T6, cynomolgus monkey cMET (recombinant, soluble monomeric) (cynomolgus monkey, UniProt A0M8R7 25-932 (Papio anubis entry)).
T6 construct: also called cyno cMET
Described as above. Here is the method:
as §3, §4

The target in assay [5] is T7, cynomolgus monkey EGFR (recombinant, soluble monomeric) (cynomolgus monkey, UniProt P55245 25-645 (rhesus entry)).
T7 construct: also called cyno EGFR
The assay is described as above. The procedure: as §3, §4

T5 sequence (P08581 25-932): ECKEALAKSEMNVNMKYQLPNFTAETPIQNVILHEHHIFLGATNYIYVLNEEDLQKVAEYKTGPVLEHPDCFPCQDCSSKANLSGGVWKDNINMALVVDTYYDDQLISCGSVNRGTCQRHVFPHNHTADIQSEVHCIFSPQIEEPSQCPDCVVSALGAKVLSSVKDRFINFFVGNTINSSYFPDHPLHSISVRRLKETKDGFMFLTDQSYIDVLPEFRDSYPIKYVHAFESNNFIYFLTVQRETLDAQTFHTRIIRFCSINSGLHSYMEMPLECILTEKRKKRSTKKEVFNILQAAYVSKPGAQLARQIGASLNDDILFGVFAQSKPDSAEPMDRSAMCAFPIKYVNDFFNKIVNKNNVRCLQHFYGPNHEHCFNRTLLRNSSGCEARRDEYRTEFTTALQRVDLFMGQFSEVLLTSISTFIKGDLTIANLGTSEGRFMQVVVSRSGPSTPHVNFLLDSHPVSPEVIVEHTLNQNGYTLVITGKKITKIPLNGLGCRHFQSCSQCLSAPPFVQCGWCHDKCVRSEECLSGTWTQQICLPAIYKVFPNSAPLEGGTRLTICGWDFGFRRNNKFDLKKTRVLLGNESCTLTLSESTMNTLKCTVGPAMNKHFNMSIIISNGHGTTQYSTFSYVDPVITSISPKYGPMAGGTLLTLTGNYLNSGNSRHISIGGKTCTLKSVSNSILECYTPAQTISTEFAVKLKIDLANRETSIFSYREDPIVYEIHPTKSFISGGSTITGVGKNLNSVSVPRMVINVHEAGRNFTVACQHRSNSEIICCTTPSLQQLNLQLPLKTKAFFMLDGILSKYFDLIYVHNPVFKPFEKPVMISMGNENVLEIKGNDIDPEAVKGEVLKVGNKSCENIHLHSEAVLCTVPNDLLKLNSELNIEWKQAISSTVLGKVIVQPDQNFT
T6 sequence (A0M8R7 25-932 S170N/I621T): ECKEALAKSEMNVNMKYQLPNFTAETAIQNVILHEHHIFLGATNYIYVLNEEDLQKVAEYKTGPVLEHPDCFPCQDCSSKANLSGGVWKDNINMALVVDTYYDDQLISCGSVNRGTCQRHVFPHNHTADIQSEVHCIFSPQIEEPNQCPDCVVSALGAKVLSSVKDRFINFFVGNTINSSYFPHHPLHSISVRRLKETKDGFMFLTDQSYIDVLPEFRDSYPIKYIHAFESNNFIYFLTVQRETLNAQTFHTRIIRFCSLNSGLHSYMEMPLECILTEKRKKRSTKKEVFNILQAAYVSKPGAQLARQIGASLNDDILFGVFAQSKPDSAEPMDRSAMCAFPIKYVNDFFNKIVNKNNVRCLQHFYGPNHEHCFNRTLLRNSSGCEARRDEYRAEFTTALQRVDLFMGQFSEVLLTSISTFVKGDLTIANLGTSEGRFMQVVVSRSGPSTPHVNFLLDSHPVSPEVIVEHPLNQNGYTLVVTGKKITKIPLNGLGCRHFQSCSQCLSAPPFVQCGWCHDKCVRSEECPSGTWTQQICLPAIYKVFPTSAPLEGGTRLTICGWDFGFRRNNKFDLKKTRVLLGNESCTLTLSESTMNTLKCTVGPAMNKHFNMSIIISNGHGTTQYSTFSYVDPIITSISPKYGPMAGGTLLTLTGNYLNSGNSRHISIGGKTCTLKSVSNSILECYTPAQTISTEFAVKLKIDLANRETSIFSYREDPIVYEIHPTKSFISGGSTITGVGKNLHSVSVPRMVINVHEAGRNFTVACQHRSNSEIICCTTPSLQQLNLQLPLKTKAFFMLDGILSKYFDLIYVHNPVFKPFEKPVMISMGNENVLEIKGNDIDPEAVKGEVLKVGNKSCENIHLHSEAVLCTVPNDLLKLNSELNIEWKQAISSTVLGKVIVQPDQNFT
Sequence of mouse cMET (recombinant) (P16056 25-929 limits assumed): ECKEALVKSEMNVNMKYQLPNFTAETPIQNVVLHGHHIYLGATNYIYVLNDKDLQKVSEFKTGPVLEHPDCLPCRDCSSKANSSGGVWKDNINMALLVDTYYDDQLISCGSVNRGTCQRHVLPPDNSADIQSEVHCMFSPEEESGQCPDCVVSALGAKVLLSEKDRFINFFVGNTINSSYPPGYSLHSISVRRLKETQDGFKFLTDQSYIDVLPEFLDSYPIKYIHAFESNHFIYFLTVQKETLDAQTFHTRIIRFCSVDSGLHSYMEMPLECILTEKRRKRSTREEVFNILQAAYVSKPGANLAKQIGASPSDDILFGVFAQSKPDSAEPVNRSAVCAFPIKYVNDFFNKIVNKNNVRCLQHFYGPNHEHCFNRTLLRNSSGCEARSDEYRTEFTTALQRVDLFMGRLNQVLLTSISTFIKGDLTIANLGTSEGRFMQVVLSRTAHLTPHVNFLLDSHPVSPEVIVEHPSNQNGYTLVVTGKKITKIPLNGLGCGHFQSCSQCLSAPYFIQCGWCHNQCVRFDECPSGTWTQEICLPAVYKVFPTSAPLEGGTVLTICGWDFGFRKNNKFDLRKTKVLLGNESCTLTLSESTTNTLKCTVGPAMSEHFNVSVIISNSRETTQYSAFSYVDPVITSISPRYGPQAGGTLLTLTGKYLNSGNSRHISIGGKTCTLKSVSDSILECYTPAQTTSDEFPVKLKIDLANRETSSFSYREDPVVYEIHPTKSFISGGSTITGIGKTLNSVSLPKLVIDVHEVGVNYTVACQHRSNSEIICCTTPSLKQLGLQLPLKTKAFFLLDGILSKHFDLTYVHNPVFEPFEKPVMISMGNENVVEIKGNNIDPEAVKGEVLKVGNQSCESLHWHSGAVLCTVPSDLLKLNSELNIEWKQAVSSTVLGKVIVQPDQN
Sequence of c-MET receptor on the cell surface (H1975 cells) (P08581 25-1390): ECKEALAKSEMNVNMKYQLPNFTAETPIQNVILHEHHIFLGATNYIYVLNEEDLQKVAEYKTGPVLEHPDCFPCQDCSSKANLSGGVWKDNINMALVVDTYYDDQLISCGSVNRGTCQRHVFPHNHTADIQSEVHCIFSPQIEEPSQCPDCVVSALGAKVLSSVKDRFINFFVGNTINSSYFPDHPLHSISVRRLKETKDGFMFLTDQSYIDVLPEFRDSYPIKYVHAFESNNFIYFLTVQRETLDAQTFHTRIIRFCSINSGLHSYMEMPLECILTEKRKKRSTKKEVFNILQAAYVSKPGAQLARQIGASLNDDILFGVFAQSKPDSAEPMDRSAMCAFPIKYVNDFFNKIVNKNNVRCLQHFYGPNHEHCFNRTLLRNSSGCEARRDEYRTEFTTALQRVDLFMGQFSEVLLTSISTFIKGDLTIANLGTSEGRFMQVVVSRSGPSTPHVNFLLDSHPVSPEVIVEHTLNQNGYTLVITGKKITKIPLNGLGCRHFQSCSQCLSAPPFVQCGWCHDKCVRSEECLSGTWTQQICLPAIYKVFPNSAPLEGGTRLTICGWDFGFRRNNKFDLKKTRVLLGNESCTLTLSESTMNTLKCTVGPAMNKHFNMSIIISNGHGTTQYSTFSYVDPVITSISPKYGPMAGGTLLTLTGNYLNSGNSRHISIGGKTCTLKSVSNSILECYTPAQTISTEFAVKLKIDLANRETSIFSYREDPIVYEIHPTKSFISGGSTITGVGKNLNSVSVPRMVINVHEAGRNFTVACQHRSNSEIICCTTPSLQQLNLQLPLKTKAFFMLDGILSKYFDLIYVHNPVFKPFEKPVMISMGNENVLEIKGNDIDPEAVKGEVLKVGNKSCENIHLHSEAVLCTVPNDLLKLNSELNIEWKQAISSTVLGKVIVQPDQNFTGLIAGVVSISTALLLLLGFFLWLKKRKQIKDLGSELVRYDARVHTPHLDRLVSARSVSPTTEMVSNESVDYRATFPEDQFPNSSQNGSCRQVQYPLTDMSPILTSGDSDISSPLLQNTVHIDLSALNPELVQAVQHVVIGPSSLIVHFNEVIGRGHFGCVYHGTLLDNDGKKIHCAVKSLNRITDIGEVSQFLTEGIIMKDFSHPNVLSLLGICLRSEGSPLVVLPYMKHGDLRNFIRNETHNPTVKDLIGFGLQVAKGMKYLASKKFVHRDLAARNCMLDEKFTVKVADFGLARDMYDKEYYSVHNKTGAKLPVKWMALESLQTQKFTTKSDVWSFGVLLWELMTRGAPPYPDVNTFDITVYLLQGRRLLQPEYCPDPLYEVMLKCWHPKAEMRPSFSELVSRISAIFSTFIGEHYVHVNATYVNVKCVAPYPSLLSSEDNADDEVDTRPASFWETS

B1: B09/IgG single-arm control antibody (bispecific antibody, part only; not given: non-binding control arm, V domains shown, part only)
VH: QVQLVQSGAEVKKPGASVKVSCKASGYTFTDYYIHWVRQATGQGLEWMGWMNPNSGNTGYAQKFQGRVTMTRDTSISTAYMELSSLRSEDTAVYYCARGQGYTHSWGQGTMVTVSS
VL: DIQMTQSPSTLSASVGDRVTITCRASEGIYHWLAWYQQKPGKAPKLLIYKASSLASGVPSRFSGSGSGTEFTLTISSLQPDDFATYYCQQYSNYPPTFGGGTKLEIK
The molecule B1 showed a cytoplasmic intensity (AlexaFluor647, confocal microscopy, H1975 cells): fold higher for RAA22/B09 DuetMab than for B09-IgG in assay [1] of 4.7 fold.

B2: QD6/B09-57 DuetMab (bispecific antibody, V domains shown)
VH 1: QVQLVQSGAEVKKPGSSVKVSCKASGGTFSDNDFSWVRQAPGQGLEWMGAIVAVVRTETYAQKFQDRVKITADISTRTTYMELSSLRSEDTAVYYCARRLMSAISGPGAPLLMWGQGTLVTVSS
VL 1: QSALTQPRSVSGSPGQSVTISCTGTSSDVGGYNYVSWYQQHPGKAPKLMIYDVSERPSGVPDRFSGSKSGNTASLTISGLQAEDEADYYCFSYTSSDTLEIFGGGTKLTVL
VH 2: B1 VH
VL 2: B1 VL
notes: also called QD6/B09 DuetMab; QD6/B09-AlexaFluor647
For orientation: Kd means the free concentration of one partner at which half of the binding sites on the other are occupied at equilibrium, for simple one-to-one binding. As a reminder, the koff is the first-order rate constant of dissociation. For orientation: kon means the second-order rate constant of association. On to B2, for which the binding result with Ron (CD136), with mouse cMET (recombinant) and in the assay with Semaphorin 3a was “no binding (tested: 10 µg/mL)” each time. Moreover, the Kd is 6.2 nM in the assay with mouse EGFR (recombinant); 5.9 nM in assay [2]; 1.6 nM in [3]; 2.2 nM in [4]; 2.8 nM in assay [5]. Moreover, the koff in the assay with mouse EGFR (recombinant) was determined as 0.00078 s⁻¹; in assay [2], 0.000374 s⁻¹; in assay [3], 0.000696 s⁻¹; in assay [4] it was 0.00206 s⁻¹; in assay [5], 0.000585 s⁻¹. Also, the on-rate (kon) amounted to 126000 M⁻¹ s⁻¹ with mouse EGFR (recombinant); 63500 M⁻¹ s⁻¹ in assay [2]; 425000 M⁻¹ s⁻¹ in assay [3]; 958000 M⁻¹ s⁻¹ in assay [4]; 210000 M⁻¹ s⁻¹ in assay [5].

B3: QD6 IgG (antibody, V domains shown)
VH: B2 VH 1
VL: B2 VL 1
notes: also called anti-EGFR antibody clone QD6
With B3, the binding result with Ron (CD136), with mouse cMET (recombinant) and with Semaphorin 3a was “no binding (tested: 10 µg/mL)” each time.

These data come from patent publication US20250121104A1 (FUSION PHARMACEUTICALS, published 2025).
